This is an account of results in patent USRE46211.

The target of one experiment is mouse myosin IIb (myosin heavy chain IIb), 200 kDa skeletal muscle protein (mouse) (UniProt Q5SX39). The experiment is described as follows: cell-based or functional assay.
Sequence of UniProt Q5SX39 (Q5SX39 whole entry, the tested form may be a part): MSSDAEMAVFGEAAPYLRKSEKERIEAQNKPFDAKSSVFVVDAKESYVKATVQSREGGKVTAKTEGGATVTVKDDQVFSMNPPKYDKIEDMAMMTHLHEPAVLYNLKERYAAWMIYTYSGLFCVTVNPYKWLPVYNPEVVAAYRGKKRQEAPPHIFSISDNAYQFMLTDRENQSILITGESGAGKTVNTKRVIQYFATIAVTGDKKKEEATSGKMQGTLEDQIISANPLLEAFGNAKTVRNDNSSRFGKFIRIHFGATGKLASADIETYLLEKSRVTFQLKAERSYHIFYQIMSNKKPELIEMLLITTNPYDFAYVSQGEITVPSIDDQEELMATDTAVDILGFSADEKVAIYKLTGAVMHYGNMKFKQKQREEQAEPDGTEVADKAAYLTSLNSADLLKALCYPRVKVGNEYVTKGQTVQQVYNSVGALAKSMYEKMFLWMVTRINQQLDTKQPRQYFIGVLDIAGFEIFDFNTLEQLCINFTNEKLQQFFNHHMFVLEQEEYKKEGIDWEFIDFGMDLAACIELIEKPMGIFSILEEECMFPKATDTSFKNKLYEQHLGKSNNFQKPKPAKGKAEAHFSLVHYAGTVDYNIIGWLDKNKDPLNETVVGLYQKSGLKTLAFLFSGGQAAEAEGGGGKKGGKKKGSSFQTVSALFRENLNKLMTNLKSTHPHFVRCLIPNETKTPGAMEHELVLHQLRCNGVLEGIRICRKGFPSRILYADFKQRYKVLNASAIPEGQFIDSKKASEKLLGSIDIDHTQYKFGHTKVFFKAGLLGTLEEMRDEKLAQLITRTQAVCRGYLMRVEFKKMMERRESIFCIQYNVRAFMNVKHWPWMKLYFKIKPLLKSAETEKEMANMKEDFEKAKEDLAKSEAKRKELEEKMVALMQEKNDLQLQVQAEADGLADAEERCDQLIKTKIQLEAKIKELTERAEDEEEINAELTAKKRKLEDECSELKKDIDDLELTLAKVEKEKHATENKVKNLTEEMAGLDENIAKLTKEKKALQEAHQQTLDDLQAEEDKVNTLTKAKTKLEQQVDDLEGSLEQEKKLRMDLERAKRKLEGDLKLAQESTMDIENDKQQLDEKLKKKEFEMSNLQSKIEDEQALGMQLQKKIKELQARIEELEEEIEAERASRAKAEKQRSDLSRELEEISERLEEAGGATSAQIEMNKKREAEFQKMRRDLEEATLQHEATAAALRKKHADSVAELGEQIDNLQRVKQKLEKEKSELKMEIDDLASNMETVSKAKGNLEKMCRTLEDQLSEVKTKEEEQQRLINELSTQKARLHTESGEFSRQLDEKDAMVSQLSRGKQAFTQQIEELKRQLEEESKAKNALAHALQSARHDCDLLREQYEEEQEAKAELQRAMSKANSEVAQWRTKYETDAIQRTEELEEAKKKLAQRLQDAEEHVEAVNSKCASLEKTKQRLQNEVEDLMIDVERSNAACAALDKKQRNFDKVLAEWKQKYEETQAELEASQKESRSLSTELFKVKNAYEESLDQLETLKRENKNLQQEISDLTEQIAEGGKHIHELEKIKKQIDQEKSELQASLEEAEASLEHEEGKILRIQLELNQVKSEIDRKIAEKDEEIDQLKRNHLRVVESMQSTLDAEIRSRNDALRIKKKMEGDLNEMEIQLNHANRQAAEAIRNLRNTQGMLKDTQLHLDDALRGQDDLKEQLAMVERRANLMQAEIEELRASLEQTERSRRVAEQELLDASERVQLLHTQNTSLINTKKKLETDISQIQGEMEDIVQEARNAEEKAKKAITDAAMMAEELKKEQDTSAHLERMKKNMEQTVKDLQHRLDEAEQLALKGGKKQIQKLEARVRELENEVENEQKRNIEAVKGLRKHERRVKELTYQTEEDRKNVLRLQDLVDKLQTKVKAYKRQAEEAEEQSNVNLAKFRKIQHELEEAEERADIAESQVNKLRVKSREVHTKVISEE
Consider “mAb 3E10 scFv containing 3E10 VH and VkIII (Vk placed N-terminal of VH)”, for which the localization of intravenously injected scFv fragments in tissues of FVB mice (histology with anti-his6 antibody) is 20%.

The target of a further experiment is HP8/HEVIN, extracellular matrix protein (UniProt Q14515). Briefly: binding of COS-7 expressed antibody to HP8; method and unit not given.
Sequence of UniProt Q14515 (Q14515 17-664 limits assumed): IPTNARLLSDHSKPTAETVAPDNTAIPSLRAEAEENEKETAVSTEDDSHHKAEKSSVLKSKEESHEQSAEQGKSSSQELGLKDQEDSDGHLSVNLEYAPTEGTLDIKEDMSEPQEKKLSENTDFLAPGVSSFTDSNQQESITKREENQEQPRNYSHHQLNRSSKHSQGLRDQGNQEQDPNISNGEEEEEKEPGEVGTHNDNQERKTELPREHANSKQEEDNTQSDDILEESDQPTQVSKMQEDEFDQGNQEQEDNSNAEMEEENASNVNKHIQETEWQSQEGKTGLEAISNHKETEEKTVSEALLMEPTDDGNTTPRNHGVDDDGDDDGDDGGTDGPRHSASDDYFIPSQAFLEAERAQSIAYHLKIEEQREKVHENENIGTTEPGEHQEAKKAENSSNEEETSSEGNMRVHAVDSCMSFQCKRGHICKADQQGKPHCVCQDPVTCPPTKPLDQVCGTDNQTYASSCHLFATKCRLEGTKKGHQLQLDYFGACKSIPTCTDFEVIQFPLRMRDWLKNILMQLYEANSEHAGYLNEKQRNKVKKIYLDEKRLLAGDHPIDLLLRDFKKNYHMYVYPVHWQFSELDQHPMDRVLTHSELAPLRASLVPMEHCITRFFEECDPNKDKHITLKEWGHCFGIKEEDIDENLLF
As to “mAb 3E10 VH31 mutant heavy chain (D to N at residue 31, H CDR1) with native light chain (antibody)”, the Antibody Specificity, HP8 amounted to 1.3.
Consider “mAb 3E10 VH31 mutant heavy chain with Vk residue 27C mutant light chain (S to D, L CDR1) (antibody)”, for which the Antibody Specificity, HP8 amounted to 0.26.
As to “mAb 3E10 VH31 mutant heavy chain with Vk residue 32 mutant light chain (Y to F, L CDR1) (antibody)”, the Antibody Specificity, HP8 is 2.76.
“mAb 3E10 VH31 mutant heavy chain with Vk residue 92 mutant light chain (R to N, L CDR3) (antibody)”: the Antibody Specificity, HP8 worked out at 1.21.
“mAb 3E10 VH31 mutant heavy chain with Vk residue 94 mutant light chain (F to D, L CDR3) (antibody)” returned an Antibody Specificity, HP8 of 0.2.
Still for that read-out and setting: next, “recombinant mAb 3E10, native heavy chain with native (anti-dsDNA kIII) light chain, expressed in COS-7 cells (antibody)”: 2.02.
